Measured values from publication PMC11481066 (2024).
Where two headings read alike, the source gives them in different places.

Legend:
Test in all cases: BLI
[1] = target: T1, SARS-CoV-2 spike protein receptor binding domain, wild-type (Wuhan type) (SARS-CoV-2, UniProt P0DTC2)
[2] = target: T1, SARS-CoV-2 spike protein receptor …; remark: listed apart in the source
[3] = target: T1, SARS-CoV-2 spike protein receptor …; remark: listed apart in the source
[4] = target: T1, SARS-CoV-2 spike protein receptor …; remark: listed apart in the source

B1: H11-H4 L106F mutant nanobody (VHH)
VHH: QVQLVESGGGLMQAGGSLRLSCAVSGRTFSTAAMGWFRQAPGKEREFVAAIRWSGGSAYYADSVKGRFTISRDKAKNTVYLQMNSLKYEDTAVYYCAQTHYVSYLFSDYATWPYDYWGQGTQVTVSS
- koff [1]: 0.149 s⁻¹
- Kd [2]: 164 nM

B2: H11-H4 L106W mutant nanobody (VHH)
VHH: QVQLVESGGGLMQAGGSLRLSCAVSGRTFSTAAMGWFRQAPGKEREFVAAIRWSGGSAYYADSVKGRFTISRDKAKNTVYLQMNSLKYEDTAVYYCAQTHYVSYLWSDYATWPYDYWGQGTQVTVSS
- koff [1]: 0.739 s⁻¹
- Kd [2]: 132 nM

B3: H11-H4 H100Y mutant nanobody (VHH)
VHH: QVQLVESGGGLMQAGGSLRLSCAVSGRTFSTAAMGWFRQAPGKEREFVAAIRWSGGSAYYADSVKGRFTISRDKAKNTVYLQMNSLKYEDTAVYYCAQTYYVSYLLSDYATWPYDYWGQGTQVTVSS
- koff [1]: 0.145 s⁻¹
- Kd [2]: 238 nM

B4: H11-H4 nanobody, wild type (VHH)
VHH: QVQLVESGGGLMQAGGSLRLSCAVSGRTFSTAAMGWFRQAPGKEREFVAAIRWSGGSAYYADSVKGRFTISRDKAKNTVYLQMNSLKYEDTAVYYCAQTHYVSYLLSDYATWPYDYWGQGTQVTVSS
- koff [1]: 0.0406 s⁻¹
- Kd [2]: 63.6 nM

B5: H11-H4 V102Y mutant nanobody (VHH)
VHH: QVQLVESGGGLMQAGGSLRLSCAVSGRTFSTAAMGWFRQAPGKEREFVAAIRWSGGSAYYADSVKGRFTISRDKAKNTVYLQMNSLKYEDTAVYYCAQTHYYSYLLSDYATWPYDYWGQGTQVTVSS
- koff [1]: 0.543 s⁻¹
- Kd [2]: 180 nM

B6: ab8 nanobody, wild type (VHH)
VHH: EVQLVESGGGLVQPGGSLRLSCAASGFTFDDYAMSWVRQAPGKGLEWIGRMYNNGRTSYNPSLKSLVTISRDNSKNTLYLQMNSLRAEDTATYYCARDNLGYRPSENLYGMDVWGQGTTVTVSS
- koff [3]: 0.0291 s⁻¹
- Kd [4]: 51.4 nM

B7: ab8 E127W mutant nanobody (VHH)
VHH: EVQLVESGGGLVQPGGSLRLSCAASGFTFDDYAMSWVRQAPGKGLEWIGRMYNNGRTSYNPSLKSLVTISRDNSKNTLYLQMNSLRAEDTATYYCARDNLGYRPSWNLYGMDVWGQGTTVTVSS
- koff [3]: 0.0148 s⁻¹
- Kd [4]: 2.18 nM
